Laboratory results taken from paper PMC5910400 (2018).

Assays:
[1] = biological target: P1243:G4S:P1156 two-warhead evasin (Amblyomma americanum | Ixodes ricinus, UniProt A0A0C9S461;V5HBW0); assay: BLI
[2] = biological target: P1156:G4S:P1243 two-warhead evasin (Ixodes ricinus | Amblyomma americanum, UniProt V5HBW0;A0A0C9S461); assay: BLI

| Binder | Kd [1] [nM] | Kd [2] [nM] |
| --- | --- | --- |
| CCL23 (ligand) RVTKDAETEFMMSKLPLENPVLLDRFHATSADCCISYTPRSIPCSLLESYFETNSECSKPGVIFLTKKGRRFCANPSDKQVQVCMRMLKLDTRIKTRKN | 0.37 | 0.098 |
| CCL11 (protein) not shown | 5.1 | 1.7 |
| CCL4L1 (protein) APMGSDPPTACCFSYTARKLPRNFVVDYYETSSLCSQPAVVFQTKRGKQVCADPSESWVQEYVYDLELN | 14 | 15 |
| CCL4 (protein) APMGSDPPTACCFSYTARKLPRNFVVDYYETSSLCSQPAVVFQTKRSKQVCADPSESWVQEYVYDLELN | 12 | 12 |
| CCL3 (ligand) SLAADTPTACCFSYTSRQIPQNFIADYFETSSQCSKPGVIFLTKRSRQVCADPSEEWVQKYVSDLELSA | 25 |  |
| CCL27 (protein) FLLPPSTACCTQLYRKPLSDKLLRKVIQVELQEADGDCHLQAFVLHLAQRSICIHPQNPSLSQWFEHQERKLHGTLPKLNFGMLRKMG | 23 | 17 |
| CCL24 (protein) VVIPSPCCMFFVSKRIPENRVVSYQLSSRSTCLKAGVIFTTKKGQQFCGDPKQEWVQRYMKNLDAKQKKASPRARAVAVKGPVQRYPGNQTTC | 9.4 | 4.5 |
| CCL16 (protein) QPKVPEWVNTPSTCCLKYYEKVLPRRLVVGYRKALNCHLPAIIFVTKRNREVCTNPNDDWVQEYIKDPNLPLLPTRNLSTVKIITAKNGQPQLLNSQ | 0.93 | 0.65 |
| CCL15 (protein) QFTNDAETELMMSKLPLENPVVLNSFHFAADCCTSYISQSIPCSLMKSYFETSSECSKPGVIFLTKKGRQVCAKPSGPGVQDCMKKLKPYSI | 11 | 12 |
| CCL19 (protein) GTNDAEDCCLSVTQKPIPGYIVRNFHYLLIKDGCRVPAVVFTTLRGRQLCAPPDQPWVERIIQRLQRTSAKMKRRSS | 2.5 | 3 |
| CCL5 (ligand) SPYSSDTTPCCFAYIARPLPRAHIKEYFYTSGKCSNPAVVFVTRKNRQVCANPEKKWVREYINSLEMS | 3.4 | 2.6 |
| CCL14 (protein) TKTESSSRGPYHPSECCFTYTTYKIPRQRIMDYYETNSQCSKPGIVFITKRGHSVCTNPSDKWVQDYIKDMKEN | 2.1 | 1.1 |
| CCL13 (ligand) not shown | 1.5 | 0.7 |
| CCL21 (ligand) SDGGAQDCCLKYSQRKIPAKVVRSYRKQEPSLGCSIPAILFLPRKRSQAELCADPKELWVQQLMQHLDKTPSPQKPAQGCRKDRGASKTGKKGKGSKGCKRTERSQTPKGP |  | 29 |
| CCL8 (protein) QPDSVSIPITCCFNVINRKIPIQRLESYTRITNIQCPKEAVIFKTKRGKEVCADPKERWVRDSMKHLDQIFQNLKP | 93 | 84 |
| CCL18 (protein) AQVGTNKELCCLVYTSWQIPQKFIVDYSETSPQCPKPGVILLTKRGRQICADPNKKWVQKYISDLKLNA | 0.3 | 0.001 |
